Columns and labels:
[1] = target: DNAX Leukocyte Associated Immunoglobulin-like Receptor (DLAIR-1) (human) (UniProt Q6GTX8); assay: flow cytometry (FACScan) on U937 myeloid tumor cells, PE goat-anti-mouse-IgG second step
[2] = target: DNAX Leukocyte Associated Immunoglobulin-like Receptor (DLAIR-1) (human) (UniProt Q6GTX8); assay: flow cytometry (FACScan) on HL60 promyeloid tumor cells, PE goat-anti-mouse-IgG second step
[3] = target: DNAX Leukocyte Associated Immunoglobulin-like Receptor (DLAIR-1) (human) (UniProt Q6GTX8); assay: flow cytometry (FACScan) on HUT78 T cell tumor cells, PE goat-anti-mouse-IgG second step
[4] = target: DNAX Leukocyte Associated Immunoglobulin-like Receptor (DLAIR-1) (human) (UniProt Q6GTX8); assay: flow cytometry (FACScan) on Jurkat T cell tumor cells, PE goat-anti-mouse-IgG second step
[5] = target: DNAX Leukocyte Associated Immunoglobulin-like Receptor (DLAIR-1) (human) (UniProt Q6GTX8); assay: flow cytometry (FACScan) on Peer T cell tumor cells, PE goat-anti-mouse-IgG second step
[6] = target: DNAX Leukocyte Associated Immunoglobulin-like Receptor (DLAIR-1) (human) (UniProt Q6GTX8); assay: flow cytometry (FACScan) on Molt4 T cell tumor cells, PE goat-anti-mouse-IgG second step
[7] = target: DNAX Leukocyte Associated Immunoglobulin-like Receptor (DLAIR-1) (human) (UniProt Q6GTX8); assay: flow cytometry (FACScan) on CEM T cell tumor cells, PE goat-anti-mouse-IgG second step

| Substance | mean fluorescence intensity [1] | mean fluorescence intensity [2] | mean fluorescence intensity [3] | mean fluorescence intensity [4] | mean fluorescence intensity [5] | mean fluorescence intensity [6] | mean fluorescence intensity [7] |
| --- | --- | --- | --- | --- | --- | --- | --- |
| DX26 monoclonal antibody | 49.5 | 46.9 | 25.8 | 47.1 | 29.1 | 30.7 | 92.7 |
| control IgG1 (antibody) | < 5 | < 5 |  | < 5 | < 5 | < 5 | < 5 |
